In publication PMC4072508, “Genome-Wide Prediction and Validation of Peptides That Bind Human Prosurvival Bcl-2 Proteins” (PLoS Computational Biology, 2014):

T1: Mcl-1, Q07820
T1 chain: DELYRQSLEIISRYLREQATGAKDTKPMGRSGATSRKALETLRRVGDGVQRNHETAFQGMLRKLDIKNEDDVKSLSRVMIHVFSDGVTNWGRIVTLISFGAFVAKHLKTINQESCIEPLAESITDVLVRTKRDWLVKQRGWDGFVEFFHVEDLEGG


Biological target: T1, Mcl-1, Q07820
Experiment: peptide SPOT array, c-Myc-tagged receptor at 1 uM or 100 nM, anti-c-Myc-Cy3

Binder | SPOT signal as a fraction of Bim BH3's signal on the same receptor and array
MAADTQVSETLKRFAGKVTTASVKER [GCN1L1] | 0.11
EITQHNVTELLRDVAAWGRARATGGD [C19orf51] | 0.02
LFIPLNISCLLKEGSEHLFDSFEPET [DEPDC5] | 0.02
KEYRNQFPEILRRAAAHLECIFRFEL [MAGEE1] | 0.02
SRTLTLIAKVIQNLANFAKFGNKEEY [RASAL2] | 0.08
PSIQLHGAKLLEELGTGLIQQYKPDS [HEATR6] | 0.01
ITMVPQASEILAKMSELVHRRLRHGS [ZFPM2] | 0.1
EVQDRLAHKGISQAARYVYQRLINDG [DAGLB] | 0.16
ERFEGFCVDMLRELAELLRFRYRLRL [GRIK5] | 0.11
FEVDDGTSVLLKKNSQHFLPRWKCEQ [GINS1] | 0.05
SNKIRNLSTTLQTIATKLCRELYSKE [CLEC12A] | 0.17
PLSNDTIARRIQELANDMEDQLIEQI [SCAND3] | 0.02
LLPRETVAGALRRLGARGGGKGRKGP [CD2BP2] | 0.13
VPAGVSLARNLKRVAEVWMDEYAEYI [GALNT10] | 0.02
VKGAEITGKAIQKGASKLRERIQPEE [SPG20] | 0.02
LEGFRKNEEVLKRCAQEYLSRVKKEE [TACC2] | 0.04
HNATLILSEGLKRAGHQLQHDLFFDT [GLDC] | 0.02
EELLRSSADFLQRLSAILRTSLRFRL [NOTCH3] | 0.11
KVRAHHYSVALRRLGQLLGSRPRPPP [FASTK] | 0.14
EQAARVAIEHLDKISDSVLVDIKDTE [CCT5] | 0.01

Binder | SPOT signal as a fraction of Bim BH3's signal on the same receptor and array
NATHEEVVHLDRNAGDEVTITVEYLR [SNTG2] | 0.01
TRELQELARKDQELADASENLLTENT [TXNDC11] | 0.01
SKVRERYVQMLDQIARQMIDFYKDLV [C1orf125] | 0.03
QDKILVAVKTLKDASDNARKDFHREA [NTRK2] | 0.02
AAVVLSVATFLYQVAERVRYYREFHH [ACCN3] | 0.03
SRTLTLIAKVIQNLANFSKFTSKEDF [SYNGAP1] | 0.08
PKPDSDVTQTINTVAYHARPDSDQRF [BARD1] | 0.01
EEITSDAAYVIQDLATLFEELQREKK [XXXX] | 0.02
IIKDQLNVSNIDQVARHLRGLLEEEC [CCDC24] | 0.02
KTVVDLVSADLEEVAQKCGLSYKAEA [RAD51L3] | 0.01
CKDPKACTILLRGASKEILSEVERNL [CCT3] | 0.02
DISALTASNLLKRYAEKYSGVLDSPY [FIGNL2] | 0.03
PQRQRLLADLLHNVSQNIAAETRAED [DFFB] | 0.02
MRPEIWIAQELRRIGDEFNAYYARRV [BCL2L11] | 1
KKSLAGAAQILLKGAERLTKSVTENQ [MED17] | 0.03
VMGSMFAVISLASIAVYFAKRFKRKN [LRRN1] | 0.13
RTGDIALAYRLTDLGSRLLSQLERPL [KIAA1383] | 0.03
LEMVSGSIQVLKHMSGRVGEELDEQG [STX10] | 0.02
ADLRALLCRELRPLGAYMSGRLKVKG [STOML1] | 0.37
QLQTLPYVGFLEHIGRILDLQLEDNK [SLITRK6] | 0.02
